Where two headings read alike, the source gives them in different places.
B1: L1705I/V1967I double mutant of the yeast CT domain (residues 1476-2233) (enzyme)
chain: GSMHLRPIATPYPVKEWLQPKRYKAHLMGTTYVYDFPELFRQASSSQWKNFSADVKLTDDFFISNELIEDENGELTEVEREPGANAIGMVAFKITVKTPEYPRGRQFVVVANDITFKIGSFGPQEDEFFNKVTEYARKRGIPRIYLAANSGARIGMAEEIVPLFQVAWNDAANPDKGFQYLYLTSEGMETLKKFDKENSVLTERTVINGEERFVIKTIIGSEDGLGVECIRGSGLIAGATSRAYHDIFTITLVTCRSVGIGAYLVRLGQRAIQVEGQPIILTGAPAINKMLGREVYTSNLQLGGTQIMYNNGVSHLTAVDDLAGVEKIVEWMSYVPAKRNMPVPILETKDTWDRPVDFTPTNDETYDVRWMIEGRETESGFEYGLFDKGSFFETLSGWAKGVVVGRARLGGIPLGVIGVETRTVENLIPADPANPNSAETLIQEPGQVWHPNSAFKTAQAINDFNNGEQLPMMILANWRGFSGGQRDMFNEILKYGSFIVDALVDYKQPIIIYIPPTGELRGGSWVVVDPTINADQMEMYADVNARAGVLEPQGMVGIKFRREKLLDTMNRLDDKYRELRSQLSNKSLAPEVHQQISKQLADRERELLPIYGQISLQFADLHDRSSRMVAKGVISKELEWTEARRFFFWRLRRRLNEEYLIKRLSHQVGEASRLEKIARIRSWYPASVDHEDDRQVATWIEENYKTLDDKLKGLKLESFAQDLAKKIRSDHDNAIDGLSEVIKMLSTDDKEKLLKTLK
notes: also called mutated yeast CT domain; mutant CT domain; not shown: C-terminal His-tag of the parent pET24d construct
B2: L1705I (protein)
chain: GSMHLRPIATPYPVKEWLQPKRYKAHLMGTTYVYDFPELFRQASSSQWKNFSADVKLTDDFFISNELIEDENGELTEVEREPGANAIGMVAFKITVKTPEYPRGRQFVVVANDITFKIGSFGPQEDEFFNKVTEYARKRGIPRIYLAANSGARIGMAEEIVPLFQVAWNDAANPDKGFQYLYLTSEGMETLKKFDKENSVLTERTVINGEERFVIKTIIGSEDGLGVECIRGSGLIAGATSRAYHDIFTITLVTCRSVGIGAYLVRLGQRAIQVEGQPIILTGAPAINKMLGREVYTSNLQLGGTQIMYNNGVSHLTAVDDLAGVEKIVEWMSYVPAKRNMPVPILETKDTWDRPVDFTPTNDETYDVRWMIEGRETESGFEYGLFDKGSFFETLSGWAKGVVVGRARLGGIPLGVIGVETRTVENLIPADPANPNSAETLIQEPGQVWHPNSAFKTAQAINDFNNGEQLPMMILANWRGFSGGQRDMFNEVLKYGSFIVDALVDYKQPIIIYIPPTGELRGGSWVVVDPTINADQMEMYADVNARAGVLEPQGMVGIKFRREKLLDTMNRLDDKYRELRSQLSNKSLAPEVHQQISKQLADRERELLPIYGQISLQFADLHDRSSRMVAKGVISKELEWTEARRFFFWRLRRRLNEEYLIKRLSHQVGEASRLEKIARIRSWYPASVDHEDDRQVATWIEENYKTLDDKLKGLKLESFAQDLAKKIRSDHDNAIDGLSEVIKMLSTDDKEKLLKTLK
modifications: left off: small tags and cut ends

Key:
[1] = molecular target: T1, CT domain of yeast ACC (Saccharomyces cerevisiae, UniProt Q00955); assay: CT domain enzyme kinetic assay, inhibition (decarboxylation of malonyl-CoA coupled to citrate synthase and malate dehydrogenase); type: biochemical, S. cerevisiae
T1 construct: made in house; host or cells: E. coli (pET24d)
T1 sequence (Q00955 1429-2233): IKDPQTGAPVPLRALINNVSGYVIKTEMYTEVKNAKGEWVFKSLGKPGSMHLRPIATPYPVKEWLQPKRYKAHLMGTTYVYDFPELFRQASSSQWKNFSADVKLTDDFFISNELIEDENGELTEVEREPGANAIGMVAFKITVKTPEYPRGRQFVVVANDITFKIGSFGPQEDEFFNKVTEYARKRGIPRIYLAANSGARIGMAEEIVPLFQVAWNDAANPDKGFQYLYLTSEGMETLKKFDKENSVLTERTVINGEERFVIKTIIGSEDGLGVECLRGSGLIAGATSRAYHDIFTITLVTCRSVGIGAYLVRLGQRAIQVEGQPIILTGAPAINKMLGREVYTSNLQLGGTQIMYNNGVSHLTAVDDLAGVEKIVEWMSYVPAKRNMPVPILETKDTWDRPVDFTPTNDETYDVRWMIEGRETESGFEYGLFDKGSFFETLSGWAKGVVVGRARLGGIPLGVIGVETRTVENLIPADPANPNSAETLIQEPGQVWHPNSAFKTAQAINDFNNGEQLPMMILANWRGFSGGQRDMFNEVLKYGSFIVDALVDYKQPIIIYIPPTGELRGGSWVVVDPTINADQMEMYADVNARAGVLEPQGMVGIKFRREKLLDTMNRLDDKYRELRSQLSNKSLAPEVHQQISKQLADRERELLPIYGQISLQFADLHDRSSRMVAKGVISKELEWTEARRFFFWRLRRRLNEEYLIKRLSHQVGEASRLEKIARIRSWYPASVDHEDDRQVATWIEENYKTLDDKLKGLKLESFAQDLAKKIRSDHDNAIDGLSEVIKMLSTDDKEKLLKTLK
Source text: The CT domain can catalyze the decarboxylation of malonyl-CoA to produce acetyl-CoA in the presence of biotin methyl ester. Thus, the enzyme kinetic assays monitor the production of acetyl-CoA by coupling it to citrate synthase and malate dehydrogenase, which ultimately lead to the reduction of NAD^+.
Enzyme kinetic assays. The CT domain can catalyze the decarboxylation of malonyl-CoA to produce acetyl-CoA in the presence of biotin methyl ester. The kinetic assays monitored the production of acetyl-CoA by coupling it to citrate synthase and malate dehydronase, which ultimately lead to the reduction of NAD^+ (Guchhait et al., 1974, J. Biol. Chem. 9:6633-6645).

[2] = tested on: mammalian ACC2; conditions: cited from earlier work
[3] = tested on: ACC; conditions: cited from earlier work
[4] = molecular target: T2, L1705I, V1967I and L1705I/V1967I mutants of the yeast CT domain (Saccharomyces cerevisiae, UniProt Q00955); assay: CT domain enzyme kinetic assay, inhibition of mutant CT domains; type: biochemical, S. cerevisiae; conditions: single and double mutants; malonyl-CoA 750 μM, mutants at 20 μM
T2 construct: fused on or other part: C-terminal His-tag (pET24d)
T2 sequence (Q00955 whole entry L1705I/V1967I, form open, the tested form may be a part): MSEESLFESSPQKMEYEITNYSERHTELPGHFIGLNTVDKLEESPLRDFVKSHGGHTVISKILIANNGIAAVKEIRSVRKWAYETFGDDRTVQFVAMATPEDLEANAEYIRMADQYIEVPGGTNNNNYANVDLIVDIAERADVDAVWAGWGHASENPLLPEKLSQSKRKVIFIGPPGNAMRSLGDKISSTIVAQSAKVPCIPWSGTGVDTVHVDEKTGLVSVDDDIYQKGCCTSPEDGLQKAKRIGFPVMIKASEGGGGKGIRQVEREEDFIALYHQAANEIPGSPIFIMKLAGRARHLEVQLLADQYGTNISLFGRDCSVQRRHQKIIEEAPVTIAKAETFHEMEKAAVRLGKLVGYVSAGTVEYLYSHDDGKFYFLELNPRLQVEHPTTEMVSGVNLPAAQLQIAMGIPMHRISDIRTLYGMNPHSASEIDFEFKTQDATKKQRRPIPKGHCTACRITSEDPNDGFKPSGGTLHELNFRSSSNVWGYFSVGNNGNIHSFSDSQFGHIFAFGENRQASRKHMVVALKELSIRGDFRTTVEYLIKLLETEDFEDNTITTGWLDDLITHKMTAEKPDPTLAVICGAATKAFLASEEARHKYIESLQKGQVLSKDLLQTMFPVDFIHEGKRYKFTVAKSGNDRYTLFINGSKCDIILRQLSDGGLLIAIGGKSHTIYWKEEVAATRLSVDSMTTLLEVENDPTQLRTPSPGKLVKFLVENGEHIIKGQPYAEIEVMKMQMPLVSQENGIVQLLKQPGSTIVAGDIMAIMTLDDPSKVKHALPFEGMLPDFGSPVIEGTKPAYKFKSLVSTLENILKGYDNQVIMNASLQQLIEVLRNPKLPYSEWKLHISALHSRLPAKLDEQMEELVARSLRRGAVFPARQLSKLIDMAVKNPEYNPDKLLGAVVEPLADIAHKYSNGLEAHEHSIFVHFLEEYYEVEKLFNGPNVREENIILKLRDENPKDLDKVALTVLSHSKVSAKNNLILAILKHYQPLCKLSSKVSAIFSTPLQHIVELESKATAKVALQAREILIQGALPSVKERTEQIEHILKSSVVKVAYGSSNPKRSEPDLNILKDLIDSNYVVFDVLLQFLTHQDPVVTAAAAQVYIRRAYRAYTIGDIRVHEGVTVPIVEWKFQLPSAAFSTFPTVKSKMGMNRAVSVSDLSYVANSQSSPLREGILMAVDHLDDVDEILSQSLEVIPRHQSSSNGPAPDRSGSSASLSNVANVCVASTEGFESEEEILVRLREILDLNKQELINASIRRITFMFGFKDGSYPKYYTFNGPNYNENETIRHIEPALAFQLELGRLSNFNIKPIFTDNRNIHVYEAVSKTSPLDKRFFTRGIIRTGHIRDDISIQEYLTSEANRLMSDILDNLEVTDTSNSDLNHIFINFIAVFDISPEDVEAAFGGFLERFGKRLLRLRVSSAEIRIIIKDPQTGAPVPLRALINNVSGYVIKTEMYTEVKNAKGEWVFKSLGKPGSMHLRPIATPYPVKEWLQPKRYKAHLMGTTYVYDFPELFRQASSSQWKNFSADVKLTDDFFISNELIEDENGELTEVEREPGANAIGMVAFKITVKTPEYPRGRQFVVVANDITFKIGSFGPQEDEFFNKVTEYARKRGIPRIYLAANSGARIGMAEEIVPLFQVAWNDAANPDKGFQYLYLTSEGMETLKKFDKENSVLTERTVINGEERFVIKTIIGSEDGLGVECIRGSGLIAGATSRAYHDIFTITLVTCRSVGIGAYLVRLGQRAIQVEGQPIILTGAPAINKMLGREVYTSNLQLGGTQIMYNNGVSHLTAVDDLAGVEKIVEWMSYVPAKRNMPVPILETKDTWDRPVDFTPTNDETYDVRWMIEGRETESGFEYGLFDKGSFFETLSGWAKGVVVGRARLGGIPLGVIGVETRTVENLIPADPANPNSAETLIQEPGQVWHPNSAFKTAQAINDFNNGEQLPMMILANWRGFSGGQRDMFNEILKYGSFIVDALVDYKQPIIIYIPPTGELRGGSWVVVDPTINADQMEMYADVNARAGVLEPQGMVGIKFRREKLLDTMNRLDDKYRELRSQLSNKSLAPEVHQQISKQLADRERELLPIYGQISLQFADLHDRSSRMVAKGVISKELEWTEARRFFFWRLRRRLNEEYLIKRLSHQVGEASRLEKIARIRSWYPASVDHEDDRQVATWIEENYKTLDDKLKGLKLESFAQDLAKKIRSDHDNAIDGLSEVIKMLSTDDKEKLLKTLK
Source text: (§1) Enzyme kinetic assays. The CT domain can catalyze the decarboxylation of malonyl-CoA to produce acetyl-CoA in the presence of biotin methyl ester. The kinetic assays monitored the production of acetyl-CoA by coupling it to citrate synthase and malate dehydronase, which ultimately lead to the reduction of NAD^+ (Guchhait et al., 1974, J. Biol. Chem. […]). Mutations in the active site were designed based on the structural information. The mutants were made with the QuikChange kit (Stratagene) and sequenced for confirmation. They were purified and assayed kinetically under the same condition as the wild-type protein. The kinetic parameters for each enzyme were obtained by non-linear least-squares fitting to the initial velocity data.
Mutagenesis and kinetic assays. The L1705I and V1967I single-site mutants as well as the L1705I/V1967I double mutant were made with the QuikChange kit (Stratagene), from the expression construct that covers residues 1476-2233. The mutants were sequenced, expressed in E. coli, and purified following the same protocol as that for thewild-type CT domain. […]

[5] = Kinetic parameters of wild-type and mutant yeast CT (reverse reaction, malonyl-CoA to biotin methyl ester); type: biochemical, S. cerevisiae; conditions: 2.5 μM of the enzyme
Source text: as §1
To characterize the functional roles of the conserved residues in the active site, many of them were mutated and the kinetic parameters of the mutants for the reverse reaction, which transfers the carboxyl group of malonyl-CoA to biotin (Table D) were determined. […] Based on the structures of the invention, it is likely that this residue is important for recognizing the carboxyl group of malonyl-CoA, and this is also consistent with the hypothesis that the biotin substrate may be mostly associated with the C domain. Of the charged side chains that interact with the phosphate groups of CoA, mutation of Arg1731 gave rise to a 14-fold increase in the Km for malonyl-CoA (Table D), consistent with the structural observations. On the other hand, mutation of Arg2036 had minimal effects on the enzyme catalysis.
Mutagenesis and kinetic assays. The L1705I and V1967I single-site mutants as well as the L1705I/V1967I double mutant were made with the QuikChange kit (Stratagene), from the expression construct that covers residues 1476-2233. The mutants were sequenced, expressed in E. coli, and purified following the same protocol as that for thewild-type CT domain. The catalytic activity of the CT domain was assayed following protocols described earlier (Guchhait, R. B. et al. (1974) Acetyl coenzyme A carboxylase system from Escherichia coli. Purification and properties of the biotin carboxylase, carboxyltransferase, and carboxyl carrier protein components. J Biol Chem 249, 6633-6645; Zhang et al., 2003). […] The concentration of the malonyl-CoA substrate was kept close to the expected Km, 75 μM for the wild-type enzyme and 750 μM for the mutants. The wild-type enzyme was at 2.5 μM concentration, whereas the mutants were at 20 μM concentration.

[6] = molecular target: the molecule itself; assay: light scattering in solution (homodimer)

Row | Molecule | Km [5] | Vmax [5] | also measured
1 | O=C(c1c2ccccc2cc2ccccc12)N1CCC(N2CCC[C@@H](C(=O)N3CCOCC3)C2)CC1 [CP-640186] |  |  | Ki ([1]; versus malonyl-CoA, about 3 μM of enzyme in the reaction buffer, read-out: Ki): ~4 µM; mode of inhibition ([1]; with respect to malonyl-CoA): non-competitive; IC50 [2]: ~0.055 µM
2 | CC(Oc1ccc(Oc2ncc(C(F)(F)F)cc2Cl)cc1)C(=O)SCCNC(=O)CCNC(=O)C(O)C(C)(C)COP(=O)(O)OP(=O)(O)OCC1OC(n2cnc3c(N)ncnc32)C(O)C1OP(=O)(O)O (stereo not drawn) [CoA ester of haloxyfop] |  |  | potency relative to haloxyfop [3]: more potent inhibitor
3 | CC(Oc1ccc(Oc2ncc(C(F)(F)F)cc2Cl)cc1)C(=O)O (stereo not drawn) [haloxyfop] |  |  | Ki [1]: ~500 µM; Ki [4]: ~500 µM
4 | E1994Q | 109 ± 5 µM | 272 ± 3 ×10^−5 AU/s | 
5 | E2026Q | 218 ± 24 µM | 144 ± 6 ×10^−5 AU/s | 
6 | R1731S | 909 ± 72 µM | 385 ± 10 ×10^−5 AU/s | 
7 | R1954S | 5100 ± 1200 µM | 39 ± 6 ×10^−5 AU/s | 
8 | R2036E | 41 ± 4 µM | 133 ± 3 ×10^−5 AU/s | 
9 | Y1738F | 53 ± 6 µM | 152 ± 3 ×10^−5 AU/s | 
10 | B1 |  |  | binding result [6]: binds
11 | B2 | 1340 ± 180 µM | 12 ± 0.3 ×10^−5 AU/s | 
